Results taken from PMC12802151.

Experiments:
[1] = biological target: Beilong paramyxovirus (HMC isolate) receptor-binding protein, β-propeller head domain with C-terminal extension (BeiV(HMC)-RBPβ+) (Beilong paramyxovirus (BeiV), isolate from human mesangial cells (HMC)); test: crystal structure; BeiV(HMC)-RBPβ+ at 3.2 mg/mL, sitting-drop vapor diffusion at room temperature, 0.2 M potassium thiocyanate, 0.1 M sodium cacodylate pH 6.5, 8% poly-γ-glutamic acid polymer; 3.5 Å; a dimer in the asymmetric unit
[2] = biological target: J paramyxovirus receptor-binding protein, β-propeller head domain with extended C-terminus (JPV-RBPβ+) (J paramyxovirus (JPV)); test: crystal structure; JPV-RBPβ+ at 3.5 mg/mL, sitting-drop vapor diffusion at room temperature, 0.1 M tris/bicine pH 8.5, 0.2 M ammonium sulfate, Morpheus precipitant mix 4; 2.2 Å; a dimer in the asymmetric unit

| Substance | stoichiometry N [1] | stoichiometry N [2] |
| --- | --- | --- |
| Beilong paramyxovirus (HMC isolate) receptor-binding protein, β-propeller head domain with C-terminal extension (BeiV(HMC)-RBPβ+) (domain or fragment) | 2 | – |
| J paramyxovirus receptor-binding protein, β-propeller head domain with extended C-terminus (JPV-RBPβ+) (domain or fragment) | – | 2 |
